{
  "source": "the DeepSol protein solubility set",
  "data": [
    {"assay": "soluble on expression in E. coli; label from the status in PepcDB or PDB records", "values": [
      {"sequence": "MGSDKIHHHHHHMNRYLIIARVGDNSLHPTWINSEKRNFDLFISYFGNEEKKYSEHADYYEHMKGGKWPIISRLIDKNWEIISKYDAVWFPDDDLLVDTNSICKMFDLFSAFDLSLAQPALSMDSYFSHPCLLQQKKSIIRFTNFVEVMAPIFSLSSLERVKHTFSQSKSGWGLDFLWPHMINGKIGIIDVTPVIHTRPIGGELYKLNPELSPKMDIVKLQEIYPDIILNKKYKKNKFKVFSQILETRTLNEKMAYFKGKVQVALAKKVSKETKKYGA", "soluble on expression in E. coli": "not soluble"},
      {"sequence": "LKSLKDVTDHKKVNANDEDYKYIDMWKRLYQGHYAEWHNLNYEHNGNPVNRRQLSMNLPKVTAKYMSKLLFNEKVKINIDDKAAEEFVLNVLKTNGFTKNMERYIEYGEAMGGFVIKVYHDGNKNVKISFATADCMYPLSNDSENVDECVIANSFHKNNKYYKLLEWNEWKGKEEKVYTITTELYQSDNPDELGGEVSLKLLFNDIEPVVPLPPLTRPTFIYIKPNIANNKNLTSPLGISIYANALDTLKTLDLMFDSYYQEFKLGKKKVLVPSSFVKTAVNLDGSTTQYFDSTDEAFFLYQGDQDADGKSVKDISVEIRSTEFIESINAMLRIYAMQVGLSAGTFTFDENGLKTATEVVSEKSETYQTKNSHSQLIEQGIKEMIVSILEVGKFIEAYSGDVVELDTITVDFDDSIAQDEDTTINRYTTAKNQGMIPLKIALQRAWNITDAEAEEWKEEIEKDARAEIPG", "soluble on expression in E. coli": "not soluble"},
      {"sequence": "MHHHHHHSSGLVPRGSGMKETAAAKFERQHMDSPDLGTDDDDKAMAGTPSKPAEPIGPVFTKLKPWQIPKRDWFDKDFLFGASTSAYQIEGAWNEDGKGPSTWDHFCHTYPERISDMTNGDVAANSYHLYEEDVKALKDMGMKVYRFSISWSRILPDGTGKVNQAGIDYYNKLINSLIDNDIVPYVTIWHWDTPQALEDKYGGFLNRQIVDDYKQFAEVCFKNFGDRVKNWFTFNEPHTYCCFSYGEGIHAPGRCSPGMDCAVPEGDSLREPYTAGHHILLAHAEAVQLFKARYNMHGDSKIGMAFDVMGYEPYQDSFLDDQARERSIDYNMGWFLEPVVRGDYPFSMRSLIGDRLPMFTKEEQEKLASSCDIMGLNYYTSRFSKHVDMSPDFTPTLNTDDAYASSETTGSDGNDIGPITGTYWIYMYPKGLTDLLLIMKEKYGNPPVFITENGIADVEGDESMPDPLDDWKRLDYLQRHISAVKDAIDQGADVRGHFTWGLIDNFEWSLGYSSRFGLVYIDKNDGNKRKLKKSAKWFSKFNSVPKPLLKTTNNNATMTAASVSV", "soluble on expression in E. coli": "soluble"},
      {"sequence": "MEDLDALWERYREAVRAGGNPQALYQEMVWPALLALWREKPRVYPFPQAFAVSVHTLGTSPEATALAILGAGAERVYVLHTPESARFLPRLRQDTGKDLYPVEIGKSDVEAIYREVKRLLEKHPEVPVALDLTSGTKAMSAGLAAAGFFFQRFYPKVRVVYVDNEDYDPELRRPRAGTEKLRILPNPHEALAEVDALFAKELYGKGEFGQAAAYFRGMVGRTGNQAYALYALLAEMYRAWRALDFGEALKAGRKLLGQLSQNVWLNHPLNARREALEAQVALLEAVDRFLKARDFALKEGVYGLARTLLHLAQEAKEEAAVLAALYAYRALELLLQERLALLGRRAEAPGLSPEEAEALRKALAELLGVLPEEVRLPAKLGLLDLLAFLRLKGDEALGRLSLAELRGLAGALKGRNSALLVHGFDVPSPKAVEGIARLAQGLLQDLEARTALGPLSPEPVPLGF", "soluble on expression in E. coli": "soluble"},
      {"sequence": "MVLIIVRTLLMRISIKMIPLAYLNHFRKEHMKSRIHWAALGLLAAFAAQAETVTIEHRLGKTTLEQKPQRVVVIGVGALDAIDSFGIEPVAVSKFDGTPDYLAKYKSDKYPSAGSLFEPDFETIYTQKPDLIVIGPRASKSYDELSKIAPTIVFAAEADQGYWESTQQQWRNLGKVFAIEPAVEAKIEQVDAQFKSIMQYNQQHKSDAMLVMSSGGNLTTFGANSRFSSVYKDFGFSETVPVSKESSHGDLISFEYIREHNPKTLLVVDRDKVVTKGETNIRQTFENDLVKATTAYKNGHIAYLDVNAWYIAISGVKATEQMVADMKASVGMQ", "soluble on expression in E. coli": "not soluble"},
      {"sequence": "MNTQYLQYVREQLMVATADLSGETKGQLLAWLENAQFDTKNYPRKKQRIWDEETESWITLNNPPIPGKQSLAKGSAIPLVKPVEYSTASWRRAVLSLDEHYKAWLLWNYSENTCWEHQVEITQWGWSAFAAQLDGKKMAGKTQERLRALIWLAAQDVKSELAGREVYQYKELAGLVGVSEKNWSETFTRHWLTMRAIFLRLDQASLLSVSESRSEQVAFNLYALN", "soluble on expression in E. coli": "not soluble"},
      {"sequence": "KLEAMKEAEGKEPSETDIKPKRIEEPVLKGFAAPAQTAPAPVSKPAPVAKKKEVEQEAKPGLFSRLFKALGSFLFGGSEEVKEEPKQEEKKSNRDNKRNKRDRNDRRRSNQRDNREGRENRDNRRRRKPREEQANEQNEAQQPANKQQPNRSQKRKPKPQQAEKAQEPKANAKVAEKGLQLAAEARSEVKPEENKAKANAKTEKVKERRQRRKLNKSVRVKDQLADEQVEETAVKAIEPVESQVDQAVDTAADAQQDNKQGESKQRRNRRSPRHLRASGQRRRRGRDRRPNPFRLRKGGVASPEMAMGKVMPRYIPKPAPKKEERVQEETVVAIATVPAMQGGFACPEMAMGKVIIRREQPAVAEAPVVEPKVQETVEAKAESPIVEAVAPEKAEPVAVDQAPVEPIVEVAEAPVAEATTETVVEEAPVQEPVVAETVEEAATEVAVETPVAAPEMKAEVINVVAKPRASAPMTKAPGPQELREIEVAAAPFKAERYQAKGAGSQVATNRASAAMTKPNFN", "soluble on expression in E. coli": "not soluble"},
      {"sequence": "MGHHHHHHSHMGEGQIPPAHDSSIFISCDVLLKKISINTRTWLPCSISCSASLLENSPFYFTLFVCDYISHSFHLLINIFSEIMSYHGNGGYNAPYGGHGGYAPPPVHGAPGYMPPTVVHTDGGHHGHVDTHHHEESHHGEHHGGHHGVQHYESHHESHHHGGHHGHH", "soluble on expression in E. coli": "not soluble"},
      {"sequence": "MGSDKIHHHHHHMINETRTTLDQSEVDHFSRIAAEWWNPHGKFRPLHQFNPTRLAYIREKICLELHRDPVSLKPFENLKILDIGCGGGLLCEPMARLGAMVVGADASQTNIEVAKIHAAQNGLSIDYRTTTAEALATEGEQFDIILNMEVVEHVADVNLFIEATAKMLKPQGLMFISTLNRTWKAWGLAIIGAEYILRWLPKGTHNYKKFLKPRELKNLLLQNALTVVDEIGVTYNPLNDSWNRSKDMNVNYLLLAKKS", "soluble on expression in E. coli": "not soluble"},
      {"sequence": "MATIDSMNKDTTRLSDGPDWTFDLLDVYLAEIDRVAKLYRLDTYPHQIEVITSEQMMDAYSSVGMPINYPHWSFGKKFIETERLYKHGQQGLAYEIVINSNPCIAYLMEENTITMQALVMAHACYGHNSFFKNNYLFRSWTDASSIVDYLIFARKYITECEERYGVDEVERLLDSCHALMNYGVDRYKRPQKISLQEEKARQKSREEYLQSQVNMLWRTLPKREEEKTVAEARRYPSEPQENLLYFMEKNAPLLESWQREILRIVRKVSQYFYPQKQTQVMNEGWATFWHYTILNHLYDEGKVTERFMLEFLHSHTNVVFQPPYNSPWYSGINPYALGFAMFQDIKRICQSPTEEDKYWFPDIAGSDWLETLHFAMRDFKDESFISQFLSPKVMRDFRFFTVLDDDRHNYLEISAIHNEEGYREIRNRLSSQYNLSNLEPNIQIWNVDLRGDRSLTLRYIPHNRAPLDRGRKEVLKHVHRLWGFDVMLEQQNEDGSVELLERCPPRMGNL", "soluble on expression in E. coli": "not soluble"},
      {"sequence": "MGSDKIHHHHHHMTNQTQSMALMVPQSSSSLEAYIHSAHNIPMLEANEEYELAKRLQETGDIQAAKQLIMSHLRFVIHVAKGYAGYGLPQADLIQEGNIGLMKAVKRFDPDVGVRLVSFAVHWIKAEIHEYVLKNWRIVKVATTKAQRKLFFNLRKAKKRLGWFSDEEVTMVAENLGVSKSDVTEMESRMAAQDPAFDLASDNDDDQDYAPVHYLEDHSSDIASQVENDNFEADNQTRLLAAIKTLDERSQHILQARWLDEEKTTLQELAATYQVSAERIRQLEKNAMNKLKGRMEM", "soluble on expression in E. coli": "not soluble"},
      {"sequence": "MLGPPSREKWSSDFPRWFDWVIETAEVYDYGRYPVKGMGVWMPYGFQIRRRVLEVVRGLLDSTGHEEVLFPLLIPEHLLRRESEHIRGFEGEVYWVTHGGREELDVKLALRPTSETSITYMETFWIKSYRQLPKKYYQVVSIFRYETKATRPMIRLREVTTFKEAHTVHESFEDAERQVLEAIEVYKAIFDRLLIPYVISKRPEWDKFAGALYTIAFDTIMPDGRALQIGTVHHLGQSFTRAFDFRIQMRDERLDHPWQTSYGVSDRVVASLIAVHGDDRGLVIPPSVAPIQVVVIPITPGDEEKRGKVLTYTAKAAEALEKAGLRVHVDDREWERPGAKFYYWEAKGVPIRVEIGLREAEQDTLTIARRDTLEKTEVPLGEAGNRIRELMAQIESSMRERAKSFFGERLLRTESLEEARDWVEGRRGIAEIPWCGRESCGLEMEERVNGKVLGTPWPEEPVEEGKRCPLCGRPAVAWIRLAKTY", "soluble on expression in E. coli": "soluble"},
      {"sequence": "MMGEPARLRRLTAEEYLREEATSPVKRELVEGVPYAMAGAGRAHNLIVTNLVLLLGPLARRKGCRLYVADMKLKVGEATFYYPDLMAVCAPPPESPLYEEAPCLVVEVLSPATEGVDRREKLWRYLSLPSLEGYLLVSARERRVELYRKEGDILHQVAEEGEVPLPCLEGSLPVAEVYAGVELEGQEA", "soluble on expression in E. coli": "soluble"},
      {"sequence": "DIQMTQSPSSLSASVGDRVTITCRTSGNIHNYLTWYQQKPGKAPQLLIYNAKTLADGVPSRFSGSGSGTQFTLTISSLQPEDFANYYCQHFWSLPFTFGQGTKVEIKRTGGGGSGGGGSGGGGSGGGGSEVQLVESGGGLVQPGGSLRLSCAASGFDFSRYDMSWVRQAPGKRLEWVAYISSGGGSTYFPDTVKGRFTISRDNAKNTLYLQMNSLRAEDTAVYYCARQNKKLTWFDYWGQGTLVTVSSHHHHHH", "soluble on expression in E. coli": "soluble"},
      {"sequence": "MGGSHHHHHHGMASALGADGFVPLGTLLQLPQFRGFSAEDVQRVVDTNRKQRFALQLGDPSTGLLIRANQGHSLQVPKLELMPLETPQALPPMLVHGTFWKHWPSILLKGLSCQGRTHIHLAPGLPGDPGIISGMRSHCEIAVFIDGPLALADGIPFFRSANGVILTPGNTDGFLLPKYFKEALQLRPTRKPLSLAGDEETECQSSPKHSSRERRRIQQ", "soluble on expression in E. coli": "not soluble"},
      {"sequence": "IKVQIEKQLSERILLIDGGMGTMIQGYKFEEEDYRGERFNKWHCDLKGNNDLLVLSQPQIIRDIHEAYLEAGADILETNTFNATTIAMADYDMESLSEEINFEAAKLAREVADKWTEKTPNKPRYVAGVLGPTNRTCSISPDVNDPGFRNVSFDELVEAYSESTRALIRGGSDLILIETIFDTLNAKACSFAVESVFEELDITLPVMISGTITDASGRTLSGQTTEAFYNALRHVKPISFGLNCALGPDELREYVSDLSRISECYVSAHPNAGLPNAFGEYDLSPEDMAEHVAEWASSGFLNLIGGCCGTTPEHIRQMALVVEGVKPRQLPELPVACRLSGLEPLTIEKDSLFINVGERTNVTGSARF", "soluble on expression in E. coli": "not soluble"},
      {"sequence": "MERGPLIFSASIGNGHNQAAKALQVEFQNKGYQPEIIDTFYSLSPALHKFMLTSYVNLLKVGPRIWQKIYFQAEKYPLFLFLDQFATFFVESLHATVKSNRCSFLVSTHPFVTAFLVRLKSKKQLNLPLYTVITDFVLHPAYLRPEIDGYFTSDPNFTDFAKLNNVSDDRFFPTGIPIPNLESIDQPKWKVRNDLGLDPQRKVLIIAGGGIGLTNYAQVIRALECLPEPIQLLCMIGHNYQVKEKISRIKSKHELKVIEFTDKFLLYLKASDAILSKAGGLTMAESLVCETPIIIHQPVPGHEEHNAKFLIDAGAALRVKGSKEIPTTIKRVLYEEACFGPMIENARKLKKPNAANEIVEQMLLLVKEQQHAFRLEHHHHHH", "soluble on expression in E. coli": "soluble"},
      {"sequence": "MAGIEITVIDYYHSKINKDSKMEIKIGELPKVLNKTYLGKLNATPSMNNPVKDTQGGEKQMESMLAYIKQKGWAGESKPNFVMNRNVIGAIPSSTGVENFIVFKTNDVQVIVKTPKEKGQESEGNQMEPWKSLIYGVNFEHHCTKTANEPLPTNDAVTKAVLKAHVPRTQEGSNNSSYSILYSAQIDGIDDKRQHYEMKVLNGGLTKYHLENSSCWFYWQSVFGNCNTLIVGSRTGKQDQDPKTLTKTRERQREELDDISYVSKFVSFSFKT", "soluble on expression in E. coli": "soluble"}
    ]}
  ]
}
